Test: yeast display, Sf9 membrane polyspecificity reagent, FACS + sequencing; frameworks hold sequencing errors
Outline: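 Galactose induction of a Saccharomyces cerevisiae BJ5465 synthetic nanobody display library ran 36–48 hours. The cells were then stained for 1 hour at 4 °C with 10% biotinylated, detergent-solubilized Sf9 membrane reagent, pulled down on streptavidin microbeads and FACS-sorted into low and high (top ~1%) gates on expression and reagent-binding fluorescence. Labels for polyreactivity follow the gate of origin.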

Row | Sequence | polyreactivity (PSR sort gate)
1 | QVQLVESGGGLVQAGGSLRLSCPASGGIFEGNAMGWYRQAPGKEMELVASITYGGGSTYYADSVKGRFTISRDNAKNTVYLQMNSLKPEDTAVYYCAADATTPGVQNGYGSWGQGTQVTVSS | low polyreactivity
2 | QVQLVESGGGLVQAGGIIRLSCAASGLIFSRYAMGWYRQAPGKETELVAAITQSGTSTYYADSVKGRFTISRDNANNTVYLQMTILKPEDTAVYYCNAYPQYRYDYWGQGTQVTVSS | low polyreactivity
3 | QVQLVESGGGLVQAGGSLRLSCAASGSTFPSNVMGWNRQAPVKERELVAAITWSGVRTYYADSVKGRFTISRDNAKNTVYLQMNSLKPEDTAVYYCAARSTYVRYDYWGQGTQVTVSS | high polyreactivity
4 | QVQLVESGGGLVQEGGSLRFSCAASGFTFDHYAMGWNRQAPGKERELVAVITKSGDSTYYADSVKGRFTISRDNAKNTVYLQMNSQKPEDPAVYYCNARRDYDMDWGQGTQVTVSS | high polyreactivity
5 | QVQLEDSGGGLVQAGGSLRLSCAASGRIFGYNAMGWYRQAPGKERELVAAITTSGGSTYYADSVKGRFTISRDNAKNTVYLQMNSLKPEDTAVYYCARDSLQVFYPYASDDYWGQGTQVTVSS | low polyreactivity
6 | QVQLVESGGGLVQAGGSLRLSCAASGIIFDGNSMGWYRQAPGKEREFVAANSRNGGSTSYADSVKGRFTISRHNAKNTVYLQMHSLKPEDTAVYYCAADVETFWGCRYEYWGQGTQVTVSS | low polyreactivity
7 | QVQLVESGGGLVQAGGSLRLSCAASGRIFRYYAMGWYRQAPGKERELVAGISWRGSSTYYADSVKGRFTISRDNAKNTVYLQMNSLKPADTAVYYCNRDLSIIPVTGGRFYYWGQGTQVTVSS | high polyreactivity
8 | QVQLVESGGGLVQAGGSLRLSCAASGFIFGYNGMGWYRQAPGKERELVAGITYSDGSTYYADSVKGRFTISRDNAKNTVYLQMNSLKPEDTAVYYCAVDVIYYWAEDYDYWGQGTQVTVSS | low polyreactivity
9 | QVQLVESGGGLVQAGGSLRLSCAASGRTFDQYAMGWYTPAPGKARELVADITWSGGTTRYADSVKRRFTISRDNAKNTVYLQMNSLKPEDTAVYYCAVDVTCGYNYWGQGTQVNVSS | low polyreactivity
10 | QVQLVESGGGLVQAGGSLRLSCAASGSTFLGYVMGWSRQAPGKERELVAAITRSGGRTYYADSVKGRFTISRDNAKNTVYLQMTSLNPEDTAVYYCAALRGPSFHGYGYWGQGTQVTVSS | high polyreactivity
11 | QVQLVESGGGLVQAGGSLRLSCAASGSIFLLYAMGWYRQAPGKERELVAAISTRDGSTYYADSVKGRFTLSRDNAKNTVYLQMNSLKPEDTAVYYCATLYSYNYWGQGTQVTVSS | high polyreactivity
12 | QVQLVESGGGLVQEGGSLRLSCAASGYIFWSNTMGWYRQAPGKERELVAAISQSTASTYYADSVKGRFTISRDNAKNTVYLQMNSLKPDDTAVYYCAADGWSRSWGYWVHYGYWGQGTQVTVSS | low polyreactivity
13 | QVQLVESGGGLVQAGGSLRLSCAASGYTFYQNAMGWYRQAPGKERELVAAITFRTGSTYYADSVKGRFTISRDNAKNTVYLQMNSLKPEDTAVYYCAATRFLRDWWYGYWGQGTQVTVSS | low polyreactivity
14 | QVQLVESGGGLVHAGGSLRLSCAASGNIFVEYAMGWYRQAPGKERELVAAITNSGGRTHYADSVKGRFTISRDNAKNTVYLQMNSLKPEDTAVYYCAAPTKYRSRRYYWGQGTQVTVSS | high polyreactivity
15 | QVQLVDSGGGLVQAGGSLRLSCAASGSIFKRNAMGWYRQAPGKERELVATISSRGGSTYYADSVKGRFTISRDNAKNTVYLQMNSLKPEDTAVYYCSARGYQITGNYYTPTSKYNYWGQGTQVTVSS | high polyreactivity
16 | QVQLVESGGGLVQAGGSIRLSCSASGNIFSDNAMGWYRQAPGKERELGAAITSGGSTNYADSVNGRFTISRDNAKNTVYLQMNSLKPEDTAVYYCAADRGFYPSLWDYDYWGQGTQVTVSS | low polyreactivity

Row | Sequence | polyreactivity (PSR sort gate)
17 | QVQLVESGGGLVQAGGSLRLSCAASGRTFAYNTMGWYRQAPGKERELVAAISTSGVRTFYADSVKGRFTISRDNAKNTVYLQMNSLKPEDTAVYSYDWGQGTQVTVSS | low polyreactivity
18 | QVQLVESGGGLVQAGGSLRLSCAASGIIFVKNAMGWYRQAPGKVRELVAAISRSGARTYYADSVKGRFTISRDNAKNTVYLLMNSLKPEDSAVYYCNKVVRYGHTRKIDTESDYWGQGTQVTVSS | high polyreactivity
19 | QVQLVESGGGLVQAGGSLRLSCAASGRTFGINAMGWYRQAPGKERELVARIRKTVGSTYYADSVKGRFTISRDNAKNTVYLQMNSLKPEDTAVYYCAADLRYGYLYPYDSWGQGTQVTVSS | high polyreactivity
20 | QVQLVESGGGLVQAGGSLRLSCAASGIIFIGNAMGWYRQAPGKERELVAAIRSGTGTNYADSVKGRFTISRDNAKNTVYLQMNSLKPEDTAVYYSNADYNSGTYTQGTHEGDYWGQGTQVTVSS | low polyreactivity
21 | QVQLVESGGGLVQAGGSLRLSCAASGSIFWFNAMGWYRQAPGKERELVAAITITGGSTYYADSVKGRFTISRDNAKNTVYLQMNSLKPEDTAVYYCAAGTGSRDDYWGQGTQVTVSS | high polyreactivity
22 | QVQLEESGGAIVQAAGSLRLSCAASGLIFAWYALGWYRPAPGKERELVATISWNGDRTYYADSVKGRFTISRDNAKNTVYLQMNSLKPEDTAVYYCAARFGSGFNYWGKGTQVTVSS | high polyreactivity
23 | QVQLVESGGGLDQAGGSLRLSCAASGLIFQVYAMGWYRQAPGKERELVAAISRSGGRTYNADSVKGRFTISRDNAKNTVYLQMNSLKPEDTAVYYCAAESYVDYPRWYDYWGQGTQVTVSS | high polyreactivity
24 | QVQLVESGGGLVQAGGSLRLSCAASGFTFNSYAMGWYRQAPGKERELVAAISWSGGSTYYADSVKGRFTISRDNAKNTVYLQMNSLKPEDTAVYYCNRDGLSRPYYYWGQGTQVTLSS | high polyreactivity
25 | QVQLVESGGGLVQAGGSLRLSCASSGSIFDFNAMGWYRQAPGKERELVATIRYSGGSTYYADSVKGRFTISRDNAKNTVYLQMNSLKPVDTAVYYCAADPDWTHWFAYYYHYGYWGQGTQVTVSS | low polyreactivity
26 | QVQLVESGGGLVQAGGSLRLSCAASGRTFPGYAMGWYRQAPGKARELVAGISYRGGSTYYADSVKGRFTISRDNAKNTVYLQLNSLKPEDTAVYYCARDYSRHKGDYWGQGTQVTVSS | low polyreactivity
27 | QVQLVDSGGGLVQAGGSLRLSCAASGSIFSSYVRGWYRQAPGKERELVAAITSRGGSTYYADSVKGRFTISRDNAKNTVYLQMNSLKPEDTAVYYCAKGGTLGGYWGQGTQVTVSS | high polyreactivity
28 | QVQLVESGGGLVQAGGSHRVSCAASGSTFDRYTMGWYRQAPGTERELVAAISISGGSTYYADSVKGRFTISRDNAKNTVYVQMNSLKPEDTAVYYCAARLDTVTDYYYWGQGTQVNVSS | low polyreactivity
29 | QVQLVESGGGLVQAGGSLRLSCAASGRIFRGNAMGWSRQAPGKERELVAGISVRGGRTYYADSVKGRFTISRDNAKNTVYLQMNSLKPEDTAVYYCAAVFWDDYGKYYYWGQGTQVTVSS | high polyreactivity
30 | QVQLVESGGGLVQAGGSLRLSCAASGRTLAKNAMGWYRQAPGKERELVAAISRRGGSTYYADSVKGRFTISRDNAKNTVYLQMNSLKPEDTAVYYCARASRQGYYQLSYDEFDYWGQGTQVTVSS | high polyreactivity
31 | QVQLVESGGGLVQAGGSLRLCCAASGSTFADNAMGWYRQAPGTDGEFVAGISTNGGSTYYADSVKGRFRISRDNAKTTVDCQLNSLKPEDTAVYDSAAVNYYDQYGDYYWGQGTQVTVSS | low polyreactivity
32 | QVQLVESGGGLVQAGGSLRLSCAASGSIFPSYAMGWYRQAPGQERELVATIGRGGTTNYADSVKGRFTISRDNAKNTVYLQMNSLKPEDTAVYYCNAERIWRYKYGYDYWGQGTQVNVSS | high polyreactivity
